# The supplement of paper PMC10567573
# ± gives the standard deviation.
# Assay: protein stability index of a GFP-peptide fusion (GPS, HEK-293T) (PSI 1-6); higher = more stable
# [1] = treatment: DMSO, c terminus: a fixed tail appended
# [2] = treatment: MLN4924 1 uM, 8 h, c terminus: a fixed tail appended
# [3] = treatment: DMSO, c terminus: native
# [4] = treatment: MLN4924 1 uM, 8 h, c terminus: native
# 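Also: 24-mer peptide tiles fused after GFP, lentivirally expressed, FACS-sorted into six equal bins by GFP/DsRed ratio, decoded by Illumina sequencing, PSI is the read-weighted mean bin number.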
Sequence,protein stability index [1],protein stability index [2],protein stability index [3],protein stability index [4]
SMNFSMMSTNTVGLGLPMSRSQNT [CLINT1],3.19 ± 0.36,3.44 ± 0.38,–,–
SMPCSTDKENGENVGLESKYLKKR [SASS6],4.62 ± 0.4,5.08 ± 0.19,–,–
SNPGPVPGSSSGPVLGSSSGAGHG [SPAG8],5.051 ± 0.027,4.7 ± 0.35,–,–
SNSCQDSTDTESNNEEQRSGLIYL [IKZF1],4.67 ± 0.27,4.735 ± 0.023,–,–
SPGGTLMDLSERQEVSSVRSLSST [DLC1],4.61 ± 0.24,4.85 ± 0.2,–,–
SPIKPGDIKRGIPNYEFKLGKITF [UFD1],2.65 ± 0.34,2.52 ± 0.39,–,–
SPLCLIPMVTSPREEQQLLASTSK [KCTD13],4.1 ± 0.29,4.37 ± 0.06,–,–
SPLEEKHDQCKCENLIMFQNLANE [MATN2],4.365 ± 0.004,4.05 ± 0.69,–,–
SPMYFFLASLSFIDTVYSTAFAPK [OR4A15],3.01 ± 0.35,2.92 ± 0.54,–,–
SPQEDGQIMFDVEMHTSRDHSSQS [BNIP3L],5.21 ± 0.2,5.21 ± 0.13,–,–
SQDALRVVSTSGEQMKVYKCEHCR [IKZF1],4.29 ± 0.33,4.38 ± 0.3,–,–
SQKLNFREHAKARVDHGAEIITQS [MAP2],3.98 ± 0.28,4.34 ± 0.38,–,–
SRIKGWWVFHHYVSTFLSGVMLTW [TMEM120A],2.55 ± 0.24,2.37 ± 0.36,–,–
SRISHLVLPVQPVSSIEEQGCLF [TOR1AIP2],–,–,2.63 ± 0.44,2.62 ± 0.22
SRRFEAVGWWALLALVTLLSFATR [POMT2],2.29 ± 0.28,2.09 ± 0.33,–,–
SSGRKWGDDAPKEEVDTGAVNLIE [INTS4],5.22 ± 0.6,5.21 ± 0.13,–,–
SSKFYDLFLMECEESPNGSEGACE [RHOBTB1],3.72 ± 0.74,3.79 ± 0.1,–,–
SSLFSVEANSSNSQKNEKALTNIQ [C8orf76],4.93 ± 0.2,4.73 ± 0.21,–,–
SSNFHINVEESVDGQVVSSHKREI [KRT15],4.7 ± 0.18,4.68 ± 0.18,–,–
SSSGDLADLENEDIFPELDDILYH [DLC1],4.77 ± 0.24,4.76 ± 0.2,–,–
SSTKPPKSRRKAALSSPRSRKNAT [INTS3],4.89 ± 0.19,5.04 ± 0.14,–,–
SSTNFAMKRDVQEGQARCLAHLGR [C8orf76],3.66 ± 0.058,3.68 ± 0.28,–,–

Sequence,protein stability index [1],protein stability index [2],protein stability index [3],protein stability index [4]
SSYFDSFQEAQIKRKARNEGRNRR [CDKL4],3.93 ± 0.76,4.96 ± 0.35,–,–
STQMFQTKRCFRLAPTFSNLLLQP [SMG5],2.16 ± 0.4,2.12 ± 0.2,–,–
STVTPVPGQEKGSALEGRADTTTG [EHMT1],5.51 ± 0.32,5.53 ± 0.24,–,–
SVDIVSSHWDLNHTHPSACQGQRL [PLD5],3.64 ± 0.16,3.82 ± 0.086,–,–
SVTGHTNIVEYLIQEQPGQEQVAG [FEM1A],4.45 ± 0.073,4.57 ± 0.17,–,–
TAAGLMHTFNAHAATDITGFGILG [SEPHS2],2.43 ± 0.51,2.44 ± 0.074,–,–
TAAMRCMCPLYDPNRQLWIELAPL [GAN],2.22 ± 0.51,2.16 ± 0.55,–,–
TADHRIYSYVVSRPQPRGLLGWGY [FAF2],2.16 ± 0.37,2.21 ± 0.22,–,–
TCPQCHRSLILDDRGLRGFPKNRV [TRIM9],2.74 ± 0.22,3.16 ± 0.41,–,–
TDAKKREALYAQDPSTGCYMYYFQ [KMT5A],2.48 ± 0.22,2.68 ± 0.35,–,–
TETDSLVSAQRERPRRRDGPEHAT [DVL3],5.24 ± 0.13,5.33 ± 0.3,–,–
TEYQKQLLAAQVQLQCSPAELQAE [FBF1],4.39 ± 0.31,4.3 ± 0.2,–,–
THLILHRDLKTQNILLDKHRMVVK [NEK8],2.78 ± 0.11,2.83 ± 0.17,–,–
TKLSLLAIHGYTVWAHNLIAIARL [FBXO33],3.19 ± 0.36,3.22 ± 0.23,–,–
TKRCFRLAPTFSNLLLQPTTNPHT [SMG5],2.41 ± 0.22,2.59 ± 0.29,–,–
TKVVYLASETFNYSAIDRVKSRGK [PI4K2A],2.85 ± 0.18,3.17 ± 0.31,–,–
TLIVVDASGLGLEITTQFLIYASY [SLC19A2],3.32 ± 0.54,3.32 ± 0.4,–,–
TLQQFNIKLRPPGAEKPSWLEEQ [ARFIP2],–,–,3.55 ± 0.34,3.62 ± 0.35
TLRPTDSQSHCYRTCFSPASDGSD [PCDHGC5],3.93 ± 0.25,4.04 ± 0.28,–,–
TLRSHLKSFSMAKGLNARMMRGLS [RAB40A],2.47 ± 0.19,2.78 ± 0.24,–,–
TLVSSGSGTMGAAKVTGEVLDILT [FLOT1],2.97 ± 0.44,2.91 ± 0.49,–,–
TLWDVFGANKEVQELLERGLLQLD [RSAD1],2.33 ± 0.25,2.64 ± 0.11,–,–
